The DeepSol protein solubility set

assay: soluble on expression in E. coli; label from the status in PepcDB or PDB records

Soluble on expression in E. coli, not soluble:
MGSDKIHHHHHHMTAIVEPTWEERRTPEAAHEDDARSQYRKDYSRIIHSAALRRLQTKTQVLGLGDSDFYRTRLTHSLEVAQIGVGILLEIQRRFAGSNIEKYLPDERLLEAICLSHDYGHPPFGHGGERALNFAMREYGGFEGNAQTFRILSKLEKYSQNSGLNPTRRTLLGVLKYPTTYSNSMTNDFRRGTDIDKYPDAELKPPKCIYDCDLDVLDWVLKIFCSEDVTEFKKLDYKCKPLHKSLDCSLMETADDIAYTVHDLEDCIKLKLINREMWDAYIKSADYSEATRLEIEKWNQRIFSKEGNLVKQGISNMVYFFIHSVIQYEHEELSHPILKYGFKLGEEAARLRSAIQKIITNEVIKTHRVRVLESKGQRMIFSIFGELVRDPESFLPRETLDKYNKATGNLRMRVICDYVSGMTDEYATKTYQRFFTPKFGSVFDV, MGSDKIHHHHHHMTALFQQLPSVDKILKTPQGLQLITEFGHTAVVATCRELLTQARQFIKKNNQLPEYFSNFDRTFLEIHSHLQKQNQVQIKAVHNLTGTVLHTNLGRALWSEAAQQAALSAMQKNVSLEYDLDEGKRSHRDNYISELLCKLTGAEAACIVNNNAAAVLLMLATFAQGKEVIISRGELIEIGGAFRIPDIMEQAGCHLVEVGTTNRTHLKDYRNAITENTAFLMKVHSSNYQICGFTSSVSEEELTELGQEMNVPVVTDLGSGALVDLSQYGLPKEPTVQEKIAQGVDLVSFSGDKLLGGVQAGIIVGKKEWIEQLQAHPLKRVLRCDKVILAGLEATLRLYLNPEKLTEKLPTLRLLTQPLKQLKINAMRLKERLESRLNSQFELQIEASQAQIGSGSQPMERIPSVAVTIAEKTNAKLSALSARFKQLSQPIIGRMENGKIWLDLRSLADIETLLNTLDEL, MGSDKIHHHHHHMTATVRQMWRHPIKGIGAEPLTEVRLETGGPMPLDRAWAVLTGTSEDTGAWQPCRNFARGCFGPELMAITAETQGNQITLRHPKQGEITLDPATDGARLLEWLLPLYPAERPQPHTLIKAPAGGMADADFSAVAILSLTSLKALGDALGQELDPRRFRGNLWIDGTAPFEEFDWVGRELKIGTARLEVVDRITRCRATETNPETGARDANTLKALREHWGHTDFGIRARVLSDGDIALSDSLEVL, MGSDKIHHHHHHMTDARDLTLPTGYIDLLGELKNRVRAARTRALRTVNTQLIELYWSIGQDVSAQQEHQGWGSGVIKRLADDLRAEFPEMKGFSARNVQYMTTFARAWNGGAIAQQPVAQLPWGHVTVLLDKLADQEKRDWYASEAVEYGWSRNVLMNMIMNKSLERTGSAPSNFAQHLVAQDSELAQQAAKDPYSFEFLGLSGEVAERDLEQALMDRITETLREMGPGFAFVGRQVHFDVGGDDFYIDLLFFHVEQLRYYVVELKTGKFQPEYAGKLNSYIALVDDRLRRETHADTVGILICGSKNDHTVRYSLGRATSPMAVASYTYDALPADVRDELPDADRLTAALDWTED, MGSDKIHHHHHHMTDQTAARACGIDFGTSNSTVGWLRPGHDTLLQLEDGKITLPSVVFFNYEEDHSRFGRAALAEYIDGFEGRLMRSLKSLLGSSLIDSQTEVQGKALPFRHLLKLFIQELKLRAEGAAGREFEQVVLGRPVYFVDDNPQADKLAQDTLADIARQVGFKEISFQLEPIAAAFDYESNIQKEELVLIVDIGGGTSDFTLIRLSPERRSHAERRDDILATGGVHIGGTDFDRQLSLHGVMPLFGFKTRLRNNAEMPSSQYFNLATWHTINFAYTRKAWMDLQDVHRDAAEPEKLDRLFKLIQERAGHWLAMEVEAAKIALSDRDSHRLALDAIERGLHCDLSRADFETSISALLDRVGGTVGKLLADSGLKAQDVDTVFFTGGSSGVPALRDGIRALLPNARHVEGNLFGSIGSGLAIEAKKRYG, MGSDKIHHHHHHMTDVNASSESRLAALEARVTELEDLNAIRRLQWAYGYYIDYNRPEEVAGLFAKDGAVVFLSGEYVGYEGVMRLYGTWFQNLFTGGRRGPVHGLLLDHFQLQDVITIAPDGQTAKGRFRGILAGGWHDDIVKDKPEGMPQQFWESGIYENDYVKEDGVWKIKRLDYMMQWQADYETGWSKTIAHLQPAAVCFPENPIGPDRLLPETEVRQTWPHRAEVPMSFAHPVLAKAFAVGEFTKLQKKWP, MGSDKIHHHHHHMTEDEAITQLRRFVAALESGSRRNANDAAFALLAGNPPLGDRWQSIAHVMQTNGEYSAAHLAMARFAAHRADPNARFAQAAMLAQTGQLEEAWKVMGSVPFGVPSVSGHHYIRGTIAVNLGHIEDAEKHLLAAIEAEPALGQAMLSLAAARKRKAGDPIGDRILSAEPRMEGAPPLERAHFHYAAGRVHFDRREPDEAFRHFSAGAELVRGWRSYDAAADARDAAECRQGFDRDFVDKINNLVTLDTSQPIFVTGLPRSGTTLVEQILVSHSAVSGGEELGRMGVVRRDLTSLSAKGLSDYLQAGGNADDLAALYLHLGQERFGKEGRFVDKALNTSRFTGLIAALLPHAPIVWLRRDPADCAFSAYRTYFINGLDWSWNLEDIATHFALEDQLFHHWSRMFPDRILAVDYQQLVQEPQAQIRRILAHCNLEEEPQVFRPHETQRVVSTASVMQVREPINTGAVGAAGAYRLHLAPFVDRYEALSAAT, MGSDKIHHHHHHMTEKADGKARIVRLGQILRIFMEKEKVSSTWLSRQFQTTPRTIQRDLLLLKKSGFPLHEIRKGIYQLHKDLVRNLEVFDDTELALVVALKNIVGQLGRPFQTAAGNILDHLYDCVKSMPVFVKIDDAVPLDSALLNRILQAILKKRTVSFQYAAPHGSHAVNLEPYRVVYFSGFWYLIGNEPSTGILKRYALDKIENFKSSRQCFTAIPSDLDDVLRQSANIWFTEDANIEITVHIDARVSDYFKRRKMYPTQEIKEERPDGSLVVTFRVGNYEAIRDILKSWIPHFVILEPEDFRVSMLNDIKGWVEKQEQQSCLDNISF, MGSDKIHHHHHHMTEQVTRRDVLGTGASVLGSLAIGSTTASGALQTDGTTVTFLHDTHVHGRFANASAGELSVARYFGLMNEITEDADTTLRVGNGDDLASSVLSAVFDGRHVVSTFNAGGLDFDTFGNHDFDMGPEVLRERVSDSLFTWVSANVREDGSVFAAEQGAQQYVLTDVGDVTLGVTGLITPEAPEVTSIGENTDVLAPASALQNVTERMRADGADAVIVLSHLASETARTVAEEVDGVDAIIGDHAASLLEEPEVINDTVLSFVGDEYEYLGELALGIDGSGVTDHEFVLHNVGESSAGTDPFVSLVQDHYETQLERQLDVVIGETTQPLDTRQSVVRARESNMGNFVADTIRTDVEADTALMNGGGIRTDRLYFEDASEDDPVAITRRVVVDILPFPNNVVELEVTGETLLAALENGVSRVEAGAGRFPQVSGITYTYDPTAESGDRIVDATAGGDPIDPDATYTLATNDFVSGGGDGYDMLSDATVLVSSNEGALLSDLIINTIEEQGTISPTTEGRITRQSEES, MGSDKIHHHHHHMTETTSSPQHYLGWDIGGANLKVALVRPDGIAVKVIQVPCPLWQGMDRLDAAIDLALAELGGPGGAKHSVTMTGELADIFPDRASGVWEIALRTHAMLGSELCFFAGASGFVPLAQVQQHANAIASANWLASAAFVATKLQQGLFIDIGSTTADFVLLHDGRPVNRGQTDAERMQHEELVYTGVARTSLMALASRIPFAGQWQNVAAEHFATTADVYRLTGELDPAEDMAATADGAGKSMDETCRRLARMVGRDADDADKTAWVHLAQAFRQQQLAILRDAVLCNLSRNVVRPGAPFIGAGAGVFLVRELAQQLGHEFLAASSLLKAESDQARNWAGVCLPAYAVANLGITANSQERAC, MGSDKIHHHHHHMTFRALPSVDRLIRAVRSDGADMPHELVREAARAVLNEARTSISAGHPPPDLSTLVAAVQARLRADVTPSLRPLINATGVIIQTNLGRAPLSAAACAAMQEVGSGYSNLEYDLAQGERGSRHVHLESLLVQLTGAEAALVVNNNAAAVYLVLIAMAAGREVIVSRGQAVEIGGGFRIPDVLRASGALLIEVGTTNRTYARDYTAAITERTALILRVHTSNFRLIGFVHEPPLAELTAVAHTHGIPLLDDLGSGTLIDTRQFDLPPEPTVQESVAAGADLVTFSGDKLLGGPQAGIIVGRRELIARLRRHPLARALRVDKCTIAGLTATLHSYLRGTALREIPVWQLISTPLSALQARAERIAGALRAAGIPAQMVDCASAIGGGSLPGATQPSAGVALPPVGCGATVLAHRLRMANPPVITRIVDDQVLCDLRSVFPHEDTTLINVVREVWQ, MGSDKIHHHHHHMTGHYSKTEHQYILLTSESASFDHYSVYRDPQLPQIFSHNFVQLHDTFPLERLLNFLPSVPKLLDANYLHLKASPQHVFPLGLKQSLVKSGFVVEDELLYDMKLSDWKGQMGHPLTAWGTAKSLSDGSSIMKIYDSIYIGEAIAEQKLKRKYPFYEADIIILVVCYSDQAQKVPIGCGELFIDHQEKTAKIEEVAILDQFQRKGYGSILVKEMLSIAKSLGMEAAYLVAASTDGATQFYEKLTFKKYERVHTVFHYFLT, MGSDKIHHHHHHMTGNQMFCRENELDESFKQLASYINIPVGVLLPFKSQCFVRHYNKGQIVYYSSDETTHIYLLLKGNIMRENFNLNGDVYRYLNREKVLFPLNNLFQDKVPNEMCTALTDCEMIGIPRDLIEYLCKNHEEIFVKLFSLLSETQCQHIEYNMALTSKLAKERVTKILRYLCQTVGYDHDEFYEIKHFMTIQLLSDMAGISRETTSHIINELREEKILFKNSKNWLVSKDL, MGSDKIHHHHHHMTITAMLNPVWIQTFATVAAARSFTEAGRQLGLSQSSVSDHIRRLEQSVGRRLFVRDTHSLSMTPDGEALLVHARLILEALARAESQFTAPRLRGRVRLGTSEDLAQGPLSGVLSAFRNTHPDVEMEITIAMTSKLYELMDAGSLDLMLGKRRQGDRRGVPLFRGSLEWLARPGTVVDLSQPLPLILVHEPSVTRSVVLDTLAKAGCQWQVVCSSSSHSGCLAAARGGLGLTVRSRYLYGEGVAPPLNWEKLPALPEVEFISLSARRLSQPAETLLRLLQKSDLRAASSWTSA, MGSDKIHHHHHHMTIWVRNGNNAATEQEISAKETELGLFLPAEYKELLLKQNGGLIRKNHFPTNEPTSYGLDVAEIYYLASLNELLTDIPEQNDVDLAGKQVYFHRDESRYIGFSYADNKSLPSIIYVDFETLQTLVVAENMAEFLEALYFSPFPVDFAEQFPVKKLDQILASSNVKKTKQLLELLEDYPDKKWYLETLIRLLQKNEIPYNIVVYQSFENQLLYFRRKLVPELVEKIFAMLKDCDGIDQSATTELYKEWE, MGSDKIHHHHHHMTKARKVLVSALCFTALIGEAAVGREQVVLKPSGQWNINYADESCQLARTFGVGDQKTLVQFERFGPENGFALMIVSPLLKFQENFRAVPNRMLHPTKRQYLDTVFQFLPGGEPYKQPGIPAMDAASRQPTLMAFLSLEGPRKDAAPTATGTASASEDRKLTNEERLALEKATNALLVEQPFNDPIRFELGSLAQPFATLAACTDDLVRSWGLQTDPEHAAVNPPKPIGSPSEWFDDKKLAERVWSKRENAIIYFRMIVSDKGAPESCVIQDSSQTTELRDLSCRALMGKARFTPGTNAAGQSVRSVYRGAVRYFTSRN, MGSDKIHHHHHHMTKLAIMSDLHIDLNHFSTFETKTLINLLKKEKIDHLHIAGDISNHFTKDTLPFINNLKKHIKLSYNLGNHDMLDLTETEIQRLDFQTYRFDKKMLLAFHGWYDYSFSNNRDIKDVEKLKKTFWFDRRLKRPNNDVTIQASILKRLDEILAKVDSSNIIIAMHFVPHKQFTMTHPRFSPFNAFLGSQAYHDLFQKYHIKDVVFGHAHRSFGDVKIGETTYHSRPLGYIREWNLTIDFVNQNPNHNPNLTWNLSKRYNAVKHLDSFENYRKKYFEDELRNSMTIFDC
